Test results as given in patent US20170306030A1.

Target: EGF receptor (UniProt P00533)
Experiment: cell-based or functional assay

Substance	inhibition of proliferation and survival of Daudi-EGFR cells (WST-1), potency against the corresponding IFNα2a mutant alone	specificity of IFNα signaling, Daudi-EGFR against parental Daudi cells
IFNα-2a (R144A) - (Gly4Ser)7 - EGF chimeric activator (from UniProt P01563 24-188; P01133 23-1207)	100 fold	–
IFNα-2a (R149A) - (Gly4Ser)7 - EGF chimeric activator (from UniProt P01563 24-188; P01133 23-1207)	–	> 20 fold
